Reference: article PMC12217004, “Evolutionary regulation of human Fas ligand (CD95L) by plasmin in solid cancer immunotherapy” (Nature Communications, 2025)
Substitutions are numbered along the chain they refer to. Numbers in names are those of the source.

T1: human Fas ligand extracellular domain, shorter form, His-tagged (HuFasL^S, 134-281) (human), P48023
T1 chain: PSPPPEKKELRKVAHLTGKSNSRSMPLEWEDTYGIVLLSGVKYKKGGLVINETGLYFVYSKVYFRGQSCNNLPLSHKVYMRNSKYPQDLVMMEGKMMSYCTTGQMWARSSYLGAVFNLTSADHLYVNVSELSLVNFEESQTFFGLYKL

B1: Rhesus monkey Fas ligand extracellular domain, shorter form (RhFasL^S, 134-281) (domain or fragment, UniProt P63307 134-280, looked up)
chain: SPPPEKKEQRKVAHLTGKPNSRSMPLEWEDTYGIVLLSGVKYKKGGLVINETGLYFVYSKVYFRGQSCTNLPLSHKVYMRNSKYPQDLVMMEGKMMSYCTTGQMWAHSSYLGAVFNLTSADHLYVNVSELSLVNFEESQTFFGLYKL
notes: Rhesus monkey Fas ligand (FasL), residues 134-281, carries P153; source: Freestyle CHO-S cells, transfected, purified from supernatant (his-TRAP)
B2: human Fas ligand extracellular domain, long form, His-tagged (HuFasL^L, 103-281) (domain or fragment, UniProt P48023 103-281, looked up)
chain: QLFHLQKELAELRESTSQMHTASSLEKQIGHPSPPPEKKELRKVAHLTGKSNSRSMPLEWEDTYGIVLLSGVKYKKGGLVINETGLYFVYSKVYFRGQSCNNLPLSHKVYMRNSKYPQDLVMMEGKMMSYCTTGQMWARSSYLGAVFNLTSADHLYVNVSELSLVNFEESQTFFGLYKL
notes: human Fas ligand (FasL, CD95L), entire extracellular domain, residues 103-281 (Q103-L281), carries S153; C-terminal His-tag versions were poorly expressed and not functional; N-terminal His-tag proteins were used; Mixture of trimer and monomer by SEC; also called Long^(L); huFasL^WT; source: Freestyle CHO-S cells, transfected, purified from supernatant (his-TRAP); not shown: His tag, N-terminal, …
B3: human Fas ligand extracellular domain, long form, S153P (HuFasL-S153P^L, 103-281) (domain or fragment, UniProt P48023 103-281, looked up)
chain: B2 chain with S51P
notes: human Fas ligand (FasL), residues 103-281 with S153P; The substitution was engineered here; source: Freestyle CHO-S cells, transfected, purified from supernatant (his-TRAP)
B4: human Fas ligand extracellular domain, shorter form, His-tagged (HuFasL^S, 134-281), P48023 134-281 (domain or fragment)
chain: T1 chain
B5: human Fas ligand extracellular domain, shorter form, S153P (HuFasL-S153P^S, 134-281) (domain or fragment, UniProt P48023 134-281, looked up)
chain: T1 chain with S20P
notes: human Fas ligand (FasL), residues 134-281 with S153P; The substitution was engineered here; source: Freestyle CHO-S cells, transfected, purified from supernatant (his-TRAP)
B6: Rhesus monkey Fas ligand extracellular domain, long form, His-tagged (RhFasL^L, 103-281) (domain or fragment, UniProt P63307 103-280, looked up)
chain: LFHLQKELAELRESTSQKHTASSLEKQIGHPSPPPEKKEQRKVAHLTGKPNSRSMPLEWEDTYGIVLLSGVKYKKGGLVINETGLYFVYSKVYFRGQSCTNLPLSHKVYMRNSKYPQDLVMMEGKMMSYCTTGQMWAHSSYLGAVFNLTSADHLYVNVSELSLVNFEESQTFFGLYKL
notes: Rhesus monkey Fas ligand (FasL), entire extracellular domain, residues 103-281, carries P153; source: Freestyle CHO-S cells, transfected, purified from supernatant (his-TRAP); not shown: His tag, N-terminal, kept

How the values were obtained:
[1] = target: murine Fas ligand extracellular domain, long form, His-tagged (muFasL^L, 103-281) (mouse) (UniProt P41047); experiment: non-reducing gel with 60% lowered SDS, FasL immunoblot; his-tagged human and murine FasL forms added onto murine 4T1 cells (also human OVCAR3 cells) for 2 hr in serum-free media; supernatant precipitated and loaded without boiling on non-reducing gels
[2] = target: human Fas ligand extracellular domain, shortest form, His-tagged (HuFasL^ST, 146-281) (human) (UniProt P48023); experiment: SEC; freshly purified FasL in PBS, 10 ug loaded on Superdex 200 10/300 GL, 1 ml/min, A280; trimer and monomer peaks
[3] = target: Rhesus monkey Fas ligand extracellular domain, shortest form (RhFasL^ST) (Rhesus monkey) (UniProt P63307); experiment: as above
[4] = target: murine Fas ligand extracellular domain, shorter form, His-tagged (muFasL^S, 134-281) (mouse) (UniProt P41047); experiment: non-reducing gel with 60% lowered SDS, FasL immunoblot; his-tagged human and murine FasL forms added onto murine 4T1 cells (also human OVCAR3 cells) for 2 hr in serum-free media; supernatant precipitated and loaded without boiling on non-reducing gels
[5] = target: the molecule itself; experiment: SEC; freshly purified FasL in PBS, 10 ug loaded on Superdex 200 10/300 GL, 1 ml/min, A280; trimer and monomer peaks
[6] = target: T1, human Fas ligand extracellular domain, …; experiment: as above; conditions: remark: other sources report otherwise

Molecule	stoichiometry N [5]	further results
murine Fas ligand extracellular domain, long form, His-tagged (muFasL^L, 103-281) (from UniProt P41047 103-279) (domain or fragment)		stoichiometry N [1]: 3
human Fas ligand extracellular domain, shortest form, His-tagged (HuFasL^ST, 146-281) (from UniProt P48023 146-281) (domain or fragment)		stoichiometry N [2]: 3
Rhesus monkey Fas ligand extracellular domain, shortest form (RhFasL^ST) (from UniProt P63307 146-280) (domain or fragment)		stoichiometry N [3]: 3
murine Fas ligand extracellular domain, shorter form, His-tagged (muFasL^S, 134-281) (from UniProt P41047 134-279) (domain or fragment)		stoichiometry N [4]: 3
B1	3	
B2	3	
B3	3	
B4		stoichiometry N [6]: 3
B5	3	
B6	3	
